Results on two substances are retold here after article PMC3573685.

Like-named read-outs stand apart in the source and are kept apart here.

The target of assay [1] is Aquifex aeolicus TatC (Aquifex aeolicus). Kind of assay: ITC. On the technique in general: Isothermal titration calorimetry measures the heat released or taken up as one component is titrated into another.
For assay [2] the target is unchanged.

Chain of Tat signal peptide of the E. coli protein SufI (P26648 1-27 limits assumed): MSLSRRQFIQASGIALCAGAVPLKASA

For orientation: Kd means the free concentration of one partner at which half of the binding sites on the other are occupied at equilibrium, for simple one-to-one binding. Lower therefore signals a tighter complex. The stoichiometry N is the number of molecules, sites or subunits per partner or assembly. For the substance “Tat signal peptide of the E. coli protein SufI”, in assay [1], the Kd is 3000 nM and the stoichiometry N was determined as 1. Aquifex aeolicus TatC (natural protein) had a stoichiometry N in assay [2] of 2.
